These results are taken from patent publication US20050239730A1, “Plasmodium falciparum erythrocyte binding protein baebl for use as a vaccine” (priority 2001, published 2005).

In experiment [1] the test system is binding of BAEBL to human erythrocytes. The experiment in a line: Competitive inhibition assay. The settings on record: 1 μM, 10 μM, 100 μM, and 1000 μM; preincubated 1 hr at room temperature. As to the method:
To determine the specificity of binding, we studied binding to neuraminidase-and trypsin-treated human erythrocytes and human erythrocytes with various genetically modified blood groups. […] To determine whether BAEBL was binding to the carbohydrates on the erythrocyte receptor, we performed competitive inhibition with Neu5Ac(α2-3) lactosialic and Neu5Ac(α2-6)lactosialic acid at 1 μM, 10 μM, 100 μM, and 1000 μM.
An inhibition assay was conducted in the presence of Neu5Ac(α2-3) lactosialic acid or Neu5Ac(α2-6) lactosialic acid (Sigma). Metabolically labeled parasite supernatant (50 μl) was preincubated with 1, 10, 100, or 1000 μM in 15 μl of the aforementioned carbohydrates for 1 hr at room temperature. Packed erythrocytes (50 μl) were added to the mixture. The erythrocyte binding assay was conducted as described above. Immunolocalization of BAEBL.

Experiment [2] concerns the target Gerbich human erythrocytes (exon 3 deletion of glycophorin C/D: shortened glycophorin C, absent glycophorin D). The experiment in a line: region II on COS cells, erythrocyte-binding assay.
Experiment [3] addresses normal human erythrocytes (untreated). The experiment is described as follows: region II on COS cells, erythrocyte-binding assay.
The target in experiment [4] is neuraminidase-treated normal human erythrocytes. The experiment in a line: region II on COS cells, erythrocyte-binding assay.
Experiment [5] concerns the target trypsin-treated human erythrocytes. The experiment is described as follows: region II on COS cells, erythrocyte-binding assay.
The subject of experiment [6] is RBC (normal, trypsin- or neuraminidase-treated, Gerbich-negative). The experiment is described as follows: Erythrocyte-binding assay with BAEBL region II variants expressed on the surface of COS cells. It counts as cell-based, human.

On to `CC(=O)NC1C(O)CC(OCC2OC(OC3C(CO)OC(O)C(O)C3O)C(O)C(O)C2O)(C(=O)O)OC1C(O)C(O)CO` (stereo not drawn) [Neu5Ac(α2-6) lactosialic acid], for which, in experiment [1], the “Inhibition of the binding of BAEBL to human erythrocytes” value is on record as “neither Neu5Ac(α2-3) nor Neu5Ac(α2-6) lactosialic acid inhibited the binding”.
As for “BAEBL region II variant VSKK, expressed on the surface of COS cells (ligand)”, the percentage of binding to normal, untreated RBC worked out at 112% in experiment [2] and 90% in experiment [4]. This molecule also came in with a COS cells with five or more attached RBC, total per coverslip (COS cells per coverslip) in experiment [3] of 58.
Take “BAEBL region II variant ISKK, expressed on the surface of COS cells (ligand)”: the percentage of binding to normal, untreated RBC in experiment [2] was 96%; in experiment [5], 92%. The same molecule gave a COS cells with five or more attached RBC, total per coverslip (COS cells per coverslip) in experiment [3] of 59.
Take “BAEBL region II variant INRE, expressed on the surface of COS cells (ligand)”: the percentage of binding to normal, untreated RBC in experiment [2] was determined as 100%; in experiment [4] it was 110%; in experiment [5], 114%. This molecule also showed a COS cells with five or more attached RBC, total per coverslip (COS cells per coverslip) in experiment [3] of 67.
Take `CC(=O)NC1C(O)CC(OC2C(O)C(CO)OC(OC3C(CO)OC(O)C(O)C3O)C2O)(C(=O)O)OC1C(O)C(O)CO` (stereo not drawn) [Neu5Ac(α2-3) lactosialic acid]: the “Inhibition of the binding of BAEBL to human erythrocytes” value in experiment [1] is given as “neither Neu5Ac(α2-3) nor Neu5Ac(α2-6) lactosialic acid inhibited the binding”.

B1: VSTK: BAEBL region II variant (aa 143-606) expressed in COS cells; V185, S239, T261, K285 (protein)
chain: TFIQKRTHLFACGIKRKSIKWICRENSEKITVCVPDRKIQLCVANFLNSRLETMEKFKEIFLISVNTEAKLLYNKNEGKDPSIFCNELRNSFSDFRSSFIGDDMDFGGNTDRVKGYINTKFSDYYKEKNVEKLNNIKKEWWEKNKANLWNHMIVNHKGNISKECAIIPAEEPQINLWIKEWNENFLMEKKRLFLNIKDKCVENKKYEACFGGCRLPCSSYTSFMKKSKTQMEVLTNLYKKKNSGVDKNNFLNDLFKKNNKNDLDDFFKNEKEYDDLCDCRYTATIIKSFLNGPAKNDVDIASQINVNDLRGFGCNYKSNNEKSWNCTGTFTNKFPGTCEPPRRQTLCLGRTYLLHRGHEEDYKEHLLGASIYEAQLLKYKYKEKDENALCSIIQNSYADLADIIKGSDIIKDYYGKKMEENLNKVNKDKKRNEESLKIFREKWWDENKENVWKVMSAVLKNKET
Regarding B1, the “Binding to Gerbich-negative RBC as percentage of binding to normal, untreated RBC” value in experiment [6] (Gerbich-negative RBC (exon 3 deletion of glycophorin C/D)) is reported as 0.9%. In addition, in experiment [6] (neuraminidase-treated normal RBC), the “Binding to neuraminidase-treated normal RBC as percentage of binding to normal, untreated RBC” value was 0%. Also, in experiment [6] (normal untreated RBC, region II (aa 143-606) expressed in COS cells), the “Binding to normal RBC, untreated: COS cells with five or more attached RBC, total per coverslip” value is on record as 65. Also, the “Binding to trypsin-treated normal RBC as percentage of binding to normal, untreated RBC” value in experiment [6] (trypsin-treated normal RBC) turned out to be 0%.
